Substrate in data set [1]: CC(C)=CCc1c(O)ccc2c1O[C@H](c1ccc(O)cc1)CC2=O
As to the kind of experiment: cells, lysate or membranes named. The data set is classed as in vitro ADME, human. Conditions: pH 7.4, 37.0 °C.

Substrate in the data set “not read”: CC(C)=CCc1c(O)ccc2c1O[C@H](c1ccc(O)cc1)CC2=O
The data set can be described thus: not read. Conditions: substrate inhibition model, pH 7.4, 37.0 °C.

Where [2] appears, read: other: formation of G1, substrate inhibition model.
[3] abbreviates: other: formation of G2, substrate inhibition model.

One may read the Vmax as the top rate of the reaction or transport when substrate is in excess.

B1: UGT1A6 (Homo sapiens) (protein)
chain: DKLLVVPQDGSHWLSMKDIVEVLSDRGHEIVVVVPEVNLLLKESKYYTRKIYPVPYDQEELKNRYQSFGNNHFAERSFLTAPQTEYRNNMIVIGLYFINCQSLLQDRDTLNFFKESKFDALFTDPALPCGVILAEYLGLPSVYLFRGFPCSLEHTFSRSPDPVSYIPRCYTKFSDHMTFSQRVANFLVNLLEPYLFYCLFSKYEELASAVLKRDVDIITLYQKVSVWLLRYDFVLEYPRPVMPNMVFIGGINCKKRKDLSQEFEAYINASGEHGIVVFSLGSMVSEIPEKKAMAIADALGKIPQTVLWRYTGTRPSNLANNTILVKWLPQNDLLGHPMTRAFITHAGSHGVYESICNGVPMVMMPLFGDQMDNAKRMETKGAGVTLNVLEMTSEDLENALKAVINDKSYKENIMRLSSLHKDRPVEPLDLAVFWVEFVMRHKGAPHLRPAAHDLTWYQYHSLDVIGFLLAVVLTVAFITFKCCAYGYRKCLGKKGRVKKAHKSKTH
As for B1, in data set [1] (setting [2]), the K0.5 turned out to be 67.66 ± 16.32 µM, the Vmax worked out at 0.00382 µmol/min/mg and the Vmax/Km came out at 56.5 µL/min/mg. Also, in data set [1] (setting [3]), the K0.5 came to 31.85 ± 6.28 µM, the Vmax is 0.000342 µmol/min/mg and the Vmax/Km came out at 10.7 µL/min/mg.

B2: UGT1A8 (Homo sapiens) (protein)
chain: GKLLVVPMDGSHWFTMQSVVEKLILRGHEVVVVMPEVSWQLGKSLNCTVKTYSTSYTLEDLDREFMDFADAQWKAQVRSLFSLFLSSSNGFFNLFFSHCRSLFNDRKLVEYLKESSFDAVFLDPFDACGLIVAKYFSLPSVVFARGIACHYLEEGAQCPAPLSYVPRILLGFSDAMTFKERVRNHIMHLEEHLFCQYFSKNALEIASEILQTPVTAYDLYSHTSIWLLRTDFVLDYPKPVMPNMIFIGGINCHQGKPLPMEFEAYINASGEHGIVVFSLGSMVSEIPEKKAMAIADALGKIPQTVLWRYTGTRPSNLANNTILVKWLPQNDLLGHPMTRAFITHAGSHGVYESICNGVPMVMMPLFGDQMDNAKRMETKGAGVTLNVLEMTSEDLENALKAVINDKSYKENIMRLSSLHKDRPVEPLDLAVFWVEFVMRHKGAPHLRPAAHDLTWYQYHSLDVIGFLLAVVLTVAFITFKCCAYGYRKCLGKKGRVKKAHKSKTH
As for B2, the K0.5 in data set [1] (setting [2]) was 34.71 ± 6.45 µM.

B3: UGT1A7 (Homo sapiens) (protein)
chain: GKLLVVPMDGSHWFTMQSVVEKLILRGHEVVVVMPEVSWQLGRSLNCTVKTYSTSYTLEDQDREFMVFADARWTAPLRSAFSLLTSSSNGIFDLFFSNCRSLFNDRKLVEYLKESCFDAVFLDPFDACGLIVAKYFSLPSVVFARGIFCHYLEEGAQCPAPLSYVPRLLLGFSDAMTFKERVWNHIMHLEEHLFCPYFFKNVLEIASEILQTPVTAYDLYSHTSIWLLRTDFVLEYPKPVMPNMIFIGGINCHQGKPVPMEFEAYINASGEHGIVVFSLGSMVSEIPEKKAMAIADALGKIPQTVLWRYTGTRPSNLANNTILVKWLPQNDLLGHPMTRAFITHAGSHGVYESICNGVPMVMMPLFGDQMDNAKRMETKGAGVTLNVLEMTSEDLENALKAVINDKSYKENIMRLSSLHKDRPVEPLDLAVFWVEFVMRHKGAPHLRPAAHDLTWYQYHSLDVIGFLLAVVLTVAFITFKCCAYGYRKCLGKKGRVKKAHKSKTH
On to B3, for which the K0.5 in data set [1] (setting [2]) came to 32.91 ± 5.76 µM.

B4: CYP2C19 (Homo sapiens) (protein)
chain: MDPFVVLVLCLSCLLLLSIWRQSSGRGKLPPGPTPLPVIGNILQIDIKDVSKSLTNLSKIYGPVFTLYFGLERMVVLHGYEVVKEALIDLGEEFSGRGHFPLAERANRGFGIVFSNGKRWKEIRRFSLMTLRNFGMGKRSIEDRVQEEARCLVEELRKTKASPCDPTFILGCAPCNVICSIIFQKRFDYKDQQFLNLMEKLNENIRIVSTPWIQICNNFPTIIDYFPGTHNKLLKNLAFMESDILEKVKEHQESMDINNPRDFIDCFLIKMEKEKQNQQSEFTIENLVITAADLLGAGTETTSTTLRYALLLLLKHPEVTAKVQEEIERVIGRNRSPCMQDRGHMPYTDAVVHEVQRYIDLIPTSLPHAVTCDVKFRNYLIPKGTTILTSLTSVLHDNKEFPNPEMFDPRHFLDEGGNFKKSNYFMPFSAGKRICVGEGLARMELFLFLTFILQNFNLKSLIDPKDLDTTPVVNGFASVPPFYQLCFIPV
For B4, in the data set “not read” (other: formation of M1), the K0.5 came out at 56.54 ± 16.3 µM, the Vmax stood at 0.00252 µmol/min/mg and the Vmax/Km stood at 44.5 µL/min/mg. Further, in the data set “not read” (other: formation of M3), the K0.5 was 16.81 ± 5.02 µM, the Vmax was found to be 0.0013 µmol/min/mg and the Vmax/Km came to 77.3 µL/min/mg.

B5: UGT1A1 (Homo sapiens) (protein)
chain: HAGKILLIPVDGSHWLSMLGAIQQLQQRGHEIVVLAPDASLYIRDGAFYTLKTYPVPFQREDVKESFVSLGHNVFENDSFLQRVIKTYKKIKKDSAMLLSGCSHLLHNKELMASLAESSFDVMLTDPFLPCSPIVAQYLSLPTVFFLHALPCSLEFEATQCPNPFSYVPRPLSSHSDHMTFLQRVKNMLIAFSQNFLCDVVYSPYATLASEFLQREVTVQDLLSSASVWLFRSDFVKDYPRPIMPNMVFVGGINCLHQNPLSQEFEAYINASGEHGIVVFSLGSMVSEIPEKKAMAIADALGKIPQTVLWRYTGTRPSNLANNTILVKWLPQNDLLGHPMTRAFITHAGSHGVYESICNGVPMVMMPLFGDQMDNAKRMETKGAGVTLNVLEMTSEDLENALKAVINDKSYKENIMRLSSLHKDRPVEPLDLAVFWVEFVMRHKGAPHLRPAAHDLTWYQYHSLDVIGFLLAVVLTVAFITFKCCAYGYRKCLGKKGRVKKAHKSKTH
With B5, the K0.5 in data set [1] (setting [2]) is 41.84 ± 8.25 µM.

B6: UGT1A9 (Homo sapiens) (protein)
chain: GKLLVVPMDGSHWFTMRSVVEKLILRGHEVVVVMPEVSWQLGRSLNCTVKTYSTSYTLEDLDREFKAFAHAQWKAQVRSIYSLLMGSYNDIFDLFFSNCRSLFKDKKLVEYLKESSFDAVFLDPFDNCGLIVAKYFSLPSVVFARGILCHYLEEGAQCPAPLSYVPRILLGFSDAMTFKERVRNHIMHLEEHLLCHRFFKNALEIASEILQTPVTEYDLYSHTSIWLLRTDFVLDYPKPVMPNMIFIGGINCHQGKPLPMEFEAYINASGEHGIVVFSLGSMVSEIPEKKAMAIADALGKIPQTVLWRYTGTRPSNLANNTILVKWLPQNDLLGHPMTRAFITHAGSHGVYESICNGVPMVMMPLFGDQMDNAKRMETKGAGVTLNVLEMTSEDLENALKAVINDKSYKENIMRLSSLHKDRPVEPLDLAVFWVEFVMRHKGAPHLRPAAHDLTWYQYHSLDVIGFLLAVVLTVAFITFKCCAYGYRKCLGKKGRVKKAHKSKTH
On to B6, for which the K0.5 in data set [1] (setting [2]) turned out to be 15.63 ± 3.12 µM.

B7: CYP1A2 (Homo sapiens) (protein)
chain: MALSQSVPFSATELLLASAIFCLVFWVLKGLRPRVPKGLKSPPEPWGWPLLGHVLTLGKNPHLALSRMSQRYGDVLQIRIGSTPVLVLSRLDTIRQALVRQGDDFKGRPDLYTSTLITDGQSLTFSTDSGPVWAARRRLAQNALNTFSIASDPASSSSCYLEEHVSKEAKALISRLQELMAGPGHFDPYNQVVVSVANVIGAMCFGQHFPESSDEMLSLVKNTHEFVETASSGNPLDFFPILRYLPNPALQRFKAFNQRFLWFLQKTVQEHYQDFDKNSVRDITGALFKHSKKGPRASGNLIPQEKIVNLVNDIFGAGFDTVTTAISWSLMYLVTKPEIQRKIQKELDTVIGRERRPRLSDRPQLPYLEAFILETFRHSSFLPFTIPHSTTRDTTLNGFYIPKKCCVFVNQWQVNHDPELWEDPSEFRPERFLTADGTAINKPLSEKMMLFGMGKRRCIGEVLAKWEIFLFLAILLQQLEFSVPPGVKVDLTPIYGLTMKHARCEHVQARLRFSIN
On to B7, for which, in “not read” (other: formation of M1), the K0.5 came to 5.08 ± 0.54 µM, the Vmax is 0.000312 µmol/min/mg and the Vmax/Km was 61.4 µL/min/mg. In the data set “not read” (other: formation of M3), the K0.5 was 19.81 ± 9.47 µM, the Vmax turned out to be 0.000173 µmol/min/mg and the Vmax/Km was found to be 8.75 µL/min/mg.

B8: UGT2B4 (Homo sapiens) (protein)
chain: GKVLVWPTEFSHWMNIKTILDELVQRGHEVTVLASSASISFDPNSPSTLKFEVYPVSLTKTEFEDIIKQLVKRWAELPKDTFWSYFSQVQEIMWTFNDILRKFCKDIVSNKKLMKKLQESRFDVVLADAVFPFGELLAELLKIPFVYSLRFSPGYAIEKHSGGLLFPPSYVPVVMSELSDQMTFIERVKNMIYVLYFEFWFQIFDMKKWDQFYSEVLGRPTTLSETMAKADIWLIRNYWDFQFPHPLLPNVEFVGGLHCKPAKPLPKEMEEFVQSSGENGVVVFSLGSMVSNTSEERANVIASALAKIPQKVLWRFDGNKPDTLGLNTRLYKWIPQNDLLGHPKTRAFITHGGANGIYEAIYHGIPMVGVPLFADQPDNIAHMKAKGAAVSLDFHTMSSTDLLNALKTVINDPLYKENAMKLSRIHHDQPVKPLDRAVFWIEFVMRHKGAKHLRVAAHDLTWFQYHSLDVTGFLLACVATVIFIITKCLFCVWKFVRTGKKGKRD
Regarding B8, the K0.5 in data set [1] (other: formation of G1, Michaelis–Menten model) is 2.66 ± 0.28 µM.

Source of the values: article PMC8861878 (The Journal of pharmacy and pharmacology, 2020).
